We go through 167 variants from the RNAGym collection of RNA variant scans (doi:10.7554/elife.80360).

To fix the notation:
B1: CPEB3 Ribozyme (parent)
chain: GGGGGCCACAGCAGAAGCGUUCACGUCGCGGCCCCUGUCAGAUUCUGGUGAAUCUGCGAAUUCUGCUGU

In this data set the parent is B1. The data set is described as follows: self-cleavage, relative activity (ratio to wild type); higher = more cleavage; co-transcriptional.
On to G17A A51G, for which the self-cleavage was found to be 0.455.
As to G17A A51C, the self-cleavage was 0.452.
Next, A16C G48U: 0.375; A16G A42C: 0.608; A16G G30A: 0.612.
Regarding A16G G30U, the self-cleavage is 0.201.
Next, A16G G30C: 0.105; G17A G68C: 0.704; G17A G68A: 0.843.
Next, G17A G68U: 0.751; G17A G30A: 0.164; G17A G30U: 0.176.
Next, A16G G41C: 0.41.
Turning to A16G G41U, the self-cleavage was 0.472.
With A16U U53G the figure was 0.549; with A16U U53A, 0.66.
Next, G17A U20C: 0.0978; A16U A40G: 0.754; A16U G37U: 0.173.
Next, A16U G37A: 0.154; A16C U61G: 0.848; A16G A60C: 0.58.
With A16G A60U, the self-cleavage turned out to be 0.207.
Consider A16U U62G, for which the self-cleavage came out at 0.625.
Regarding A16U U62C, the self-cleavage turned out to be 0.734.
For G17A C32G, the self-cleavage was determined as 0.13.
As to G17A C32U, the self-cleavage was 0.625.
Next, A16C U46A: 0.51; G17A A23C: 0.483.
With G17A A23G the figure was 0.243; with G17A A23U, 0.585.
Next, A16U G68U: 0.948; A16U G68C: 0.875; A16U C24A: 0.23.
Turning to A16G G56C, the self-cleavage turned out to be 0.458.
Next, A16G G56A: 0.703.
With A16C G65U the figure was 0.13; with A16C G65A, 0.155.
With A16U G30C the figure was 0.189; with A16U G30A, 0.22; with A16G U38A, 0.767.
With A16G U38C, the self-cleavage was 0.665.
Next, G17A U62C: 0.193.
Next, G17A U62G: 0.198; G17A U44C: 0.255.
Take G17A U44A: the self-cleavage was 0.397.
As for G17A U44G, the self-cleavage was 0.302.
With A16U C33G the figure was 0.319.
With A16U C33A the figure was 0.555.
Next, A16U C33U: 0.865.
A16G U43C: the self-cleavage stood at 0.791.
In the case of A16G U43A, the self-cleavage amounted to 0.784.
Regarding G17A C35A, the self-cleavage came to 0.136.
Next, G17A C35G: 0.179.
With G17A C29A the figure was 0.572; with G17A C29U, 0.858; with A16G A52G, 0.87.
With A16G A52U the figure was 0.804; with G17A A52U, 0.519; with G17A A52G, 0.596.
With G17A U49A, the self-cleavage is 0.611.
With G17A U49G the figure was 0.444.
Next, G17A U49C: 0.486; A16U U61C: 0.599; A16U U61G: 0.902.
With A16U U61A the figure was 0.93; with A16C U49C, 0.377.
On to A16C U49G, for which the self-cleavage turned out to be 0.319.
Next, A16C U49A: 0.419; A16G A40C: 0.243.
Next, A16G A40U: 0.409; G17A C54A: 0.236.
Next, G17A C54U: 0.488; G17A C54G: 0.187; G17A C45G: 0.435.
For G17A C45A, the self-cleavage stood at 0.366.
With A16C G68C the figure was 0.454; with A16C G68A, 0.61.
As for A16C U20G, the self-cleavage was 0.285.
Next, A16U U43A: 0.615; A16U U43G: 0.395; G17A G41A: 0.133.
Next, G17A G41C: 0.141; G17A G41U: 0.183; A16U U69A: 0.923.
Next, A16U U69C: 1.02; A16C U53C: 0.152; A16C U53G: 0.251.
With G17A G47C, the self-cleavage is 0.641.
With G17A G47A the figure was 0.541.
Turning to A16G C45G, the self-cleavage was 0.958.
With A16G C45U the figure was 0.884; with A16G C45A, 0.811; with G17A U36C, 0.225.
For the variant G17A U36A, the self-cleavage came out at 0.0937.
Regarding G17A U36G, the self-cleavage amounted to 0.117.
Next, A16G G68U: 0.956; A16G G68C: 0.981.
With A16G A51G the figure was 0.894.
With A16G A51C the figure was 0.819; with A16G G25A, 0.283.
A16G G25C: the self-cleavage amounted to 0.257.
With A16G G25U the figure was 0.174.
With A16G U67C the figure was 0.935.
With A16G U67G the figure was 0.951; with G17A U53G, 0.38.
G17A U53A: the self-cleavage amounted to 0.237.
With G17A U53C the figure was 0.22.
With A16C G50C the figure was 0.301; with A16G U36C, 0.724; with A16G C63G, 0.527.
With A16G C63A the figure was 0.648; with A16G C54U, 0.928.
Take A16U C66U: the self-cleavage turned out to be 0.785.
With A16U C66A the figure was 0.427.
With A16U C66G the figure was 0.356; with A16U A59U, 0.381; with G17A U46C, 0.417.
With G17A G31U the figure was 0.113; with G17A G31C, 0.135.
Take A16U G31A: the self-cleavage is 0.482.
With A16U G50U the figure was 0.862; with A16G U21C, 0.777.
For A16G U21G, the self-cleavage is 0.395.
With A16G U64G the figure was 0.727; with A16G U64A, 0.645; with G17A A42U, 0.314.
Next, G17A A42C: 0.253.
Next, A16G G65C: 0.446.
Consider G17A U38C, for which the self-cleavage worked out at 0.314.
With G17A U38G the figure was 0.11; with G17A C18A, 0.116.
Next, G17A C18G: 0.147; A16U: 0.888; A16G: 0.946.
Next, G17A C39U: 0.213; G17A C39A: 0.201.
On to G17A C39G, for which the self-cleavage is 0.216.
With A16G C39U the figure was 0.808; with A16G C39G, 0.745.
Next, A16G C39A: 0.591; A16G C18A: 0.0836.
For the variant A16G C18U, the self-cleavage came out at 0.569.
Next, A16U U21A: 0.839; A16G G58C: 0.95; A16G C29A: 0.224.
As for A16G C29U, the self-cleavage was determined as 0.111.
With A16U G19U, the self-cleavage amounted to 0.164.
Next, A16U G19A: 0.13; A16U C34A: 0.4; A16U C34G: 0.353.
With A16U C34U the figure was 0.892.
Next, A16G U44A: 0.835; A16U A23G: 0.528.
A16U A23U: the self-cleavage amounted to 0.867.
With A16G C33G the figure was 0.29.
On to A16G C33U, for which the self-cleavage stood at 0.946.
Next, G17A G65C: 0.27; G17A G65U: 0.225; G17A G65A: 0.203.
Next, A16G C66G: 0.646; A16G C66U: 0.89.
Next, G17A U55G: 0.16; A16C U26A: 0.158.
On to A16C U26G, for which the self-cleavage worked out at 0.102.
With A16C U26C the figure was 0.264; with A16C U44C, 0.178.
